Laboratory results from patent US20260242478A1 (published 2026).
Where no end group is shown, it is not given here.

Columns and labels:
[1] = target: Anti-CD28 Fab (SEQ ID NOs: 696, 697); test: phage binding ELISA; Fab-coated wells pre-incubated with CD28 antigen as competitor, anti-M13 HRP detection;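 also: crude clonal phage supernatants added without washing after the CD28 pre-incubation, with wells given blocking buffer only (no CD28) as the reference, bound phage read after washing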
Target sequence in this assay (VH, as listed by the source, chain 1 of 2): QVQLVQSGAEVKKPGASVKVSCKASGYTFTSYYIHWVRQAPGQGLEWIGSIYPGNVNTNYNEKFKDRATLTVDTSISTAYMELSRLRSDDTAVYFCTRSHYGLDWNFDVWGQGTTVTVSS
Target sequence in this assay (VL, as listed by the source, chain 2 of 2): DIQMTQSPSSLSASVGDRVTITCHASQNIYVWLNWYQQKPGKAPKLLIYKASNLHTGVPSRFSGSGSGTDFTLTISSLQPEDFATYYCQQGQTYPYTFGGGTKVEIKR
Experimental: (§1) Clonal phage were harvested as crude supematants and screened via standard ELISAs. […] Prior to the addition of clonal phage, wells were incubated with blocking buffer and CD28 antigen or blocking buffer alone. Without washing or aspirating, clonal phage supematants were then added to the wells and incubated for a short time. Wells were then washed followed by detection of bound phage using a horse radish conjugated anti-M13 antibody. Clonal phage of interest were then sent for sequence analysis.

[2] = target: Anti-CD28 Fab (SEQ ID NOs: 696, 697); test: phage binding ELISA; biotinylated anti-CD28 Fab on neutravidin plate, clonal phage supernatant, anti-M13 HRP detection;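 also: wells pretreated with blocking buffer, either plus or minus CD28 antigen, then given crude phage supernatant briefly without washing in between, then washed before anti-M13 HRP readout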
Target sequence in this assay (VH, as listed by the source, chain 1 of 2): as the sequence (VH, as listed by the source, chain 1 of 2) above
Target sequence in this assay (VL, as listed by the source, chain 2 of 2): as the sequence (VL, as listed by the source, chain 2 of 2) above
Experimental: (§2) Clonal phage were harvested as crude supematants and screened via standard ELISAs. […] Prior to the addition of clonal phage, wells were incubated with blocking buffer and CD28 antigen or blocking buffer alone. Without washing or aspirating, clonal phage supematants were then added to the wells and incubated for a short time. Wells were then washed followed by detection of bound phage using a horse radish conjugated anti-M13 antibody.

[3] = target: T1, Anti-CD28 Fab (SEQ ID NOs: 696, 697); test: phage binding ELISA; clonal phage on plate-captured biotinylated anti-CD28 Fab
T1 construct: In the phage ELISA the Fab was biotinylated and captured on neutravidin coated plates
T1 sequence (VH, as listed by the source, chain 1 of 2): as the sequence (VH, as listed by the source, chain 1 of 2) above
T1 sequence (VL, as listed by the source, chain 2 of 2): as the sequence (VL, as listed by the source, chain 2 of 2) above
Experimental: as §2

[4] = target: T1, Anti-CD28 Fab (SEQ ID NOs: 696, 697); test: phage binding ELISA; clonal phage on plate-captured anti-CD28 Fab pre-incubated with CD28 antigen (competitor)
Experimental: as §1

[5] = target: T2, Anti-CD28 Fab (SEQ ID NOs: 696, 697) (biotinylated (site not given)); test: phage binding ELISA on captured anti-CD28 Fab; competitor: CD28 antigen added to the wells before the phage
[6] = target: T2, Anti-CD28 Fab (SEQ ID NOs: 696, 697); test: phage binding ELISA; biotinylated anti-CD28 Fab on neutravidin plate, clonal phage detected with anti-M13-HRP;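 also: crude clonal phage supernatants added briefly to wells preincubated in blocking buffer with or without CD28 antigen, then washed before detection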
Experimental: as §1

[7] = target: T3, Anti-CD28 Fab (SEQ ID NOs: 696, 697); test: phage ELISA; Fab on plate pre-incubated with CD28 antigen as competitor, anti-M13 HRP detection
T3 construct: Used biotinylated and captured on neutravidin coated plates in the phage ELISA
T3 sequence (VH, as listed by the source, chain 1 of 2): as the sequence (VH, as listed by the source, chain 1 of 2) above
T3 sequence (VL, as listed by the source, chain 2 of 2): as the sequence (VL, as listed by the source, chain 2 of 2) above
Experimental: (§3) After panning, phage infected bacteria were plated out and colonies picked into 96 well blocks. Clonal phage was then amplified and separated from bacterial cells via centrifugation.
as §1

[8] = target: T3, Anti-CD28 Fab (SEQ ID NOs: 696, 697); test: phage ELISA; biotinylated Fab on neutravidin plate, clonal phage supernatant, anti-M13 HRP detection
Experimental: as §3, §1

T2 sequence (VH, as listed by the source, chain 1 of 2): as the sequence (VH, as listed by the source, chain 1 of 2) above
T2 sequence (VL, as listed by the source, chain 2 of 2): as the sequence (VL, as listed by the source, chain 2 of 2) above

Row | Binder | Anti-CD28 Fab signal in the presence of CD28 [1] | Anti-CD28 Fab (SEQ ID NOs: 696, 697) signal [2] | Anti-CD28 Fab (SEQ ID NOs: 696, 697) signal [3] | Anti-CD28 Fab signal in the presence of CD28 [4] | Anti-CD28 Fab signal in the presence of CD28 [5] | Anti-CD28 Fab (SEQ ID NOs: 696, 697) signal [6] | also measured
1 | TCSAGASYPWPLCL [Phage-1363 peptide (Peptide-92 library sequence, SEQ ID NO: 1659)] | 0.08 | 2.29 | – | – | – | – | –
2 | TCSAGASWAWPWCF [Phage-1408 (Peptide-92 library clone)] | – | – | 2.03 | 0.08 | – | – | –
3 | YCAAGATYPWPLCL [Phage-1399] | – | – | – | – | 0.08 | 2.08 | –
4 | MCAAGATYPWPACL (cysteine pairing not given here; also: fused to phage pIII protein) [Phage-1361 peptide (Peptide-92 library sequence, SEQ ID NO: 1657)] | 0.06 | 2.3 | – | – | – | – | –
5 | LCAAGFKYPWPLCL [Phage-1411 (Peptide-92 library clone)] | – | – | 2.02 | 0.07 | – | – | –
6 | TCSAGATWSWPMCL [Phage-1368 peptide (Peptide-92 library sequence, SEQ ID NO: 1664)] | 0.09 | 2.26 | – | – | – | – | –
7 | SCKPGVANYWPWCL [Phage-1364 peptide (Peptide-92 library sequence, SEQ ID NO: 1660)] | 0.1 | 2.29 | – | – | – | – | –
8 | YCDGHHLEYIDKCL (cysteine pairing not given here; also: fused to phage pIII protein, pIII and linker sequence not given here, Peptide-87 library clone on clonal phage (crude supernatant); not shown: fused to the pIII filament protein of the bacteriophage) [Phage-1285] | – | – | – | – | – | – | Phage binding ELISA, Anti-CD28 Fab signal in the presence of CD28 [7]: 0.06; Phage binding ELISA, Anti-CD28 Fab (SEQ ID NOs: 696, 697) signal [8]: 0.69
9 | TCAAGAHYSWPACF [Phage-1370 peptide (Peptide-92 library sequence, SEQ ID NO: 1666)] | 0.07 | 2.25 | – | – | – | – | –
10 | TCAAGATYKWPACL [Phage-1405 (Peptide-92 library clone)] | – | – | 2.05 | 0.09 | – | – | –
11 | WCKPGAPYKWPPCF [Phage-1389] | – | – | – | – | 0.07 | 2.14 | –
12 | LCAAGASYPWPTCL [Phage-1414 (Peptide-92 library clone)] | – | – | 2 | 0.1 | – | – | –
13 | LCAAGATYAWPLCL [Phage-1392] | – | – | – | – | 0.07 | 2.13 | –
14 | GCAAGATYPWPSCL [Phage-1404 (Peptide-92 library clone)] | – | – | 2.05 | 0.06 | – | – | –
15 | LCEEFADYPWPMCL [Phage-1412 (Peptide-92 library clone)] | – | – | 2.01 | 0.06 | – | – | –
16 | MCAEFFNYPWPLCL (cysteine pairing not given here; also: fused to phage pIII protein) [Phage-1393] | – | – | – | – | 0.07 | 2.11 | –
17 | MCSAGAMYPWPTCL [Phage-1406 (Peptide-92 library clone)] | – | – | 2.04 | 0.08 | – | – | –
18 | TCSAGFHYEWPRCL [Phage-1410 (Peptide-92 library clone)] | – | – | 2.02 | 0.05 | – | – | –
19 | HCAAGAHYPWPACL [Phage-1415 (Peptide-92 library clone)] | – | – | 2 | 0.12 | – | – | –
20 | MCSAGAMYSWPLCL [Phage-1365 peptide (Peptide-92 library sequence, SEQ ID NO: 1661)] | 0.08 | 2.29 | – | – | – | – | –
21 | YCDGHLPRFMVKCL (cysteine pairing not given here; also: fused to phage pIII protein, pIII and linker sequence not given here, Peptide-87 library clone on clonal phage (crude supernatant); not shown: fused to the pIII filament protein of the bacteriophage) [Phage-1286] | – | – | – | – | – | – | Phage binding ELISA, Anti-CD28 Fab signal in the presence of CD28 [7]: 0.07; Phage binding ELISA, Anti-CD28 Fab (SEQ ID NOs: 696, 697) signal [8]: 0.69
22 | TCSAGATWTWPQCL [Phage-1391] | – | – | – | – | 0.08 | 2.14 | –

Row | Binder | Anti-CD28 Fab signal in the presence of CD28 [1] | Anti-CD28 Fab (SEQ ID NOs: 696, 697) signal [2] | Anti-CD28 Fab (SEQ ID NOs: 696, 697) signal [3] | Anti-CD28 Fab signal in the presence of CD28 [4] | Anti-CD28 Fab signal in the presence of CD28 [5] | Anti-CD28 Fab (SEQ ID NOs: 696, 697) signal [6] | also measured
23 | TCAAGAMWHWPVCL [Phage-1409 (Peptide-92 library clone)] | – | – | 2.03 | 0.09 | – | – | –
24 | TCSAGAYYTWPYCF [Phage-1395] | – | – | – | – | 0.08 | 2.09 | –
25 | TCKAGATYLWPFCL [Phage-1373 peptide (Peptide-92 library sequence, SEQ ID NO: 1669)] | 0.08 | 2.23 | – | – | – | – | –
26 | TCSEGATYTWPWCF [Phage-1401] | – | – | – | – | 0.06 | 2.05 | –
27 | TCAAGAMYTWPLCF [Phage-1390] | – | – | – | – | 0.09 | 2.14 | –
28 | SCAAGAMWPWPVCV [Phage-1362 peptide (Peptide-92 library sequence, SEQ ID NO: 1658)] | 0.13 | 2.29 | – | – | – | – | –
29 | TCSAGATYAWPFCL [Phage-1360 peptide (Peptide-92 library sequence, SEQ ID NO: 1656)] | 0.06 | 2.31 | – | – | – | – | –
30 | TCAAVFSYGWPECF [Phage-1396] | – | – | – | – | 0.07 | 2.09 | –
31 | TCAAGASYAWPWCL [Phage-1407 (Peptide-92 library clone)] | – | – | 2.03 | 0.08 | – | – | –
32 | TCSAGATYVWPQCF [Phage-1403 (Peptide-92 library clone)] | – | – | 2.05 | 0.07 | – | – | –
33 | SCSAGAMYTWPTCL [Phage-1397] | – | – | – | – | 0.06 | 2.09 | –
34 | MCAAGANYPWPQCL (cysteine pairing not given here; also: fused to phage pIII protein) [Phage-1367 peptide (Peptide-92 library sequence, SEQ ID NO: 1663)] | 0.08 | 2.28 | – | – | – | – | –
35 | TCAAGATYAWPECL [Phage-1400] | – | – | – | – | 0.11 | 2.08 | –
36 | TCAAGATYSWPMCF [Phage-1413 (Peptide-92 library clone)] | – | – | 2 | 0.07 | – | – | –
37 | LCSAGAMYPWPTCL [Phage-1369 peptide (Peptide-92 library sequence, SEQ ID NO: 1665)] | 0.07 | 2.25 | – | – | – | – | –
38 | TCAAGATYPWPSCL [Phage-1371 peptide (Peptide-92 library sequence, SEQ ID NO: 1667)] | 0.06 | 2.25 | – | – | – | – | –
39 | TCAAGAHYLWPWCM [Phage-1402] | – | – | – | – | 0.08 | 2.05 | –
40 | TCAAGATYEWPACL [Phage-1394] | – | – | – | – | 0.07 | 2.09 | –
41 | LCAAGATYPWPFCL [Phage-1366 peptide (Peptide-92 library sequence, SEQ ID NO: 1662)] | 0.07 | 2.28 | – | – | – | – | –
42 | RCAAGASYPWPPCL [Phage-1372 peptide (Peptide-92 library sequence, SEQ ID NO: 1668)] | 0.05 | 2.25 | – | – | – | – | –
43 | QCAAGASYPWPMCL [Phage-1398] | – | – | – | – | 0.08 | 2.08 | –
